Reference: the RNAGym collection of RNA variant scans (doi:10.1073/pnas.2313332121)

B1: TPR t1 (parent)
chain: GACCAAUCUGCCCUCAGAGCUCGAGAACAUCUUCGGAUGCAGAGGAGGCAGGCUUCGGUGGCGCGAUAGCGCCAACGUCCUCAACCUCCAAUGCAUCCCACCACAUGAUGAUGCCUGAAGAGCCUUGGUUUUUUG

Variants of: B1
Test: polymerase ribozyme fitness, log enrichment relative to wild type (log ratio); higher = more active; in vitro selection for triplet polymerase activity
Method in brief: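 Libraries of mutants in each subunit of a heterodimeric triplet polymerase ribozyme were generated by PCR and transcribed. In triplicate, each went through one in vitro selection round: annealing with biotinylated primer, partner subunit and triplets; frozen incubation at −7 °C; gel excision of extended constructs; streptavidin-bead capture; RT-PCR. Fitness, taken from Illumina sequencing of input and output libraries, is the logarithm of a genotype's enrichment over wild-type enrichment, averaged across replicates with inverse-variance weights. The logarithm is base 2, and genotypes needed ≥10 input reads and ≥1 read per output to be kept.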

Row | Variant | polymerase ribozyme fitness (log ratio)
1 | C70U C101U G117C | -5.37
2 | C70A U81A G93A | -3.44
3 | G69A C104U G127A U129A | -2.62
4 | C70U A119G | 0.891
5 | C70U A108U | -5.38
6 | U67C C123G | -4.34
7 | C70A U81C | -2.67
8 | C70G C73U | -2.63
9 | C70G A75C C115A | -1.54
10 | G69C A75G | -2.54
11 | G69U C89U | -0.148
12 | C70U G71U | -0.437
13 | G69U A105C | -0.532
14 | G69U A105U | -0.0845
15 | C70A U130A | -2.04
16 | C70A G113C | -3.23
17 | C70U C76A A121U U125G | -0.883
18 | G65A C114G | -7.73
19 | G69C U81G | -5.01
20 | G69U C98U C115A U130A | -1.03
21 | G69A U130A U133G | -2.25
22 | G69U U78C C102U | 0.0221
23 | G69C U78G C102U G110A | -6.81
24 | G71A A100U | -1.77

Row | Variant | polymerase ribozyme fitness (log ratio)
25 | C64A U96G C123U | -6.2
26 | C70G C99A | -7.95
27 | C70U C115G U116C | -4.43
28 | G65C | -5.62
29 | G65A | -3.57
30 | G65U | -4.27
31 | A66U A105U | -4.44
32 | U67G C82A | -6.14
33 | C70G U131A | -2
34 | C70G A100U | -4.02
35 | C64U U133G | -0.439
36 | C64U U133A | -0.0271
37 | C70G G117A | -3.54
38 | C70A C73G G120C | -5.26
39 | C70G U96A | -4.79
40 | G69U G110A A118C | 0.45
41 | G69C U130A | -1.59
42 | C70U A111C U116G A121C | -4.3
43 | C70A U132A | -0.853
44 | A66C G113C G120U | -5.98
45 | C64U C115U | -0.234
46 | C70U C99U | -3.35
47 | G69A C104U G120A U133A | -0.971
48 | G69U C72U C114A G128A | -3.08

Row | Variant | polymerase ribozyme fitness (log ratio)
49 | C70U C97A | -4.6
50 | A66C C85U C88A | -1.61
51 | A66U C80A | -5.71
52 | A66C C85A C86A | -2.7
53 | C64U A84C C94G | -1.23
54 | G69C A83U U129A | -1.71
55 | C70A A83G C85U G113U G117U | -6.04
56 | G69A A84U | -3.06
57 | G69U C76G C85G G120U | -2.87
58 | C70U G71A U130C | -1.13
59 | G69C G117A | -2.37
60 | G69U G117C | -2.27
61 | A68G C79G A105G G110U | -8.49
62 | G69C C82A C97G U132A | -5.29
63 | C70A C89G | -3.96
64 | C70U U109A | -4.47
65 | C70A C104U | -1.79
66 | C70A C104A U109A G128C | -7.62
67 | A66U C76U C89G C124U G128U U132C | -5.09
68 | G69A A84U A91G | -6.33
69 | C70U G93C C115U | -3.35
70 | A68U C124U | -5.86
71 | G69U U112A | 1.84
72 | G69C U126A | -3.12

Row | Variant | polymerase ribozyme fitness (log ratio)
73 | A66G G128C | -3.65
74 | U67C C88A G117C | -5.9
75 | G69C C98U | -1.79
76 | C64U U130A | -0.073
77 | C70U C102A C124G | -1.09
78 | A66G C97U U112G | -2.06
79 | A66U C89U | -1.51
80 | C70G U87C | -4.17
81 | A66G C72U C80U C123A | -3.12
82 | C70U G110U G120A U129G | -5.09
83 | G69U G135U | -0.532
84 | C70G C85U A90U C104A C115A | -6.79
85 | C70A A121G | 0.93
86 | C70A A121C | 0.356
87 | C70A C98U U130G | -2.6
88 | A66U U78C C123U | -0.156
89 | G71A A84U U112A U131A | -0.0045
90 | C70A A100U | -2.07
91 | G69C C86G A91U | -4.84
92 | C70G U78G | -2.07
93 | C70U G122A | -0.84
94 | G69U G113U | -0.867
95 | U67C A105U | -4.9
96 | C70A C88A | -1.82

Row | Variant | polymerase ribozyme fitness (log ratio)
97 | G69A U131A | -2.38
98 | G69A U131G | -3.12
99 | A66C U130C | -0.918
100 | G69U C70G A100C | -1.23
101 | G69A U81A C82U A119G G122U U125A U129C | -5.05
102 | G69C A91G | -1.94
103 | C64U C86A | -1.42
104 | C70A C86A U87G | -2.94
105 | G65A C79U | -3.57
106 | C70A G93A U116C C123A | -5.19
107 | G69A C89G C97A A105C G110U | -6.73
108 | G69C G110C | -4.54
109 | A66G U126G | -2.72
110 | G69U C94A C101G G120U | -1.15
111 | G69A U81A C86G | -4.96
112 | A68C | -6.94
113 | A68G | -2.44
114 | A68U | -7.01
115 | G69A C115G | -3.93
116 | C64U C98U | -0.89
117 | G65C U87A | -5.6
118 | G69C C94U | -1.35
119 | C70G A105U G113A | -6.59
120 | A68G C101G | -3.93

Row | Variant | polymerase ribozyme fitness (log ratio)
121 | C64A U92A C98U G110C C114A U133A | -6.59
122 | G69C A100U | -1.67
123 | C70G U106C | -2.51
124 | A66U G71C | -3.02
125 | G69A A121U U126G | -2.09
126 | C70A A83G C85A C88U | -2.53
127 | A68U C115A G120C | -7.66
128 | A66C G117A A119U | -2.36
129 | G69A G120U | -2.36
130 | C70U A74C C101U | -0.934
131 | G69A C88G C102U | -6.62
132 | A66C A84C C123U U133G | -0.245
133 | A66U U106C | -1.81
134 | G69U C123U | 1.98
135 | C64U G120U | 0.23
136 | C64U G120A | 0.482
137 | C70G C114U | -4.81
138 | C64U C101A | -1.22
139 | C70G U112C C114A | -4.91
140 | G69U G120U | 1.02
141 | C70A G120C | -0.593
142 | G69U C70G U92C G122A U125A | -3.32
143 | C70A U87C C102A | -3.97
144 | G69C C101A | -2.4

Row | Variant | polymerase ribozyme fitness (log ratio)
145 | G69U C72G C102U U125G | -1.81
146 | G69U C70U C80U G113C A119G | -3.06
147 | U67A A74U C94G C101A G113C | -7.83
148 | G65U A66C | -4.3
149 | C64U A83C A100C C101G U129G | -3.82
150 | C70G C79A | -4.41
151 | G69C C72A C94G | -5.12
152 | C64G U112G | -6.14
153 | G69A C98U | -3.52
154 | A66G U87A C99U A118U | -4.99
155 | G69U C104A U126A | -1.49
156 | G69U A84U C124U | 1.84
157 | C70U U96A | -1.14
158 | G69C G122U C124U | -0.632
159 | G69C G120C | -0.251
160 | G69U C115A | 1
161 | C64U C86A U129A | -1.99
162 | C64U A74C A75U G110A | -1.89
163 | G69C C104A C123G | -1.33
164 | C70A U106C U129A | -2.95
165 | C64G G120U | -6.39
166 | C64U A66G | -3.44
167 | C70U G113C | -3.06
